Values of other authors, collected in publication PMC3253530.
Like-named read-outs stand apart in the source and are kept apart here.

How the values were obtained:
PTPζ (Homo sapiens) [1] = biological target: PTPζ (Homo sapiens) (UniProt P23471)
LRP-1 (Homo sapiens) = LRP-1 (Homo sapiens) (UniProt Q07954)
PTPζ (Homo sapiens) [2] = biological target: PTPζ (Homo sapiens) (UniProt P23471); remark: listed apart in the source

Chain of UniProt P23471 (P23471 25-1636): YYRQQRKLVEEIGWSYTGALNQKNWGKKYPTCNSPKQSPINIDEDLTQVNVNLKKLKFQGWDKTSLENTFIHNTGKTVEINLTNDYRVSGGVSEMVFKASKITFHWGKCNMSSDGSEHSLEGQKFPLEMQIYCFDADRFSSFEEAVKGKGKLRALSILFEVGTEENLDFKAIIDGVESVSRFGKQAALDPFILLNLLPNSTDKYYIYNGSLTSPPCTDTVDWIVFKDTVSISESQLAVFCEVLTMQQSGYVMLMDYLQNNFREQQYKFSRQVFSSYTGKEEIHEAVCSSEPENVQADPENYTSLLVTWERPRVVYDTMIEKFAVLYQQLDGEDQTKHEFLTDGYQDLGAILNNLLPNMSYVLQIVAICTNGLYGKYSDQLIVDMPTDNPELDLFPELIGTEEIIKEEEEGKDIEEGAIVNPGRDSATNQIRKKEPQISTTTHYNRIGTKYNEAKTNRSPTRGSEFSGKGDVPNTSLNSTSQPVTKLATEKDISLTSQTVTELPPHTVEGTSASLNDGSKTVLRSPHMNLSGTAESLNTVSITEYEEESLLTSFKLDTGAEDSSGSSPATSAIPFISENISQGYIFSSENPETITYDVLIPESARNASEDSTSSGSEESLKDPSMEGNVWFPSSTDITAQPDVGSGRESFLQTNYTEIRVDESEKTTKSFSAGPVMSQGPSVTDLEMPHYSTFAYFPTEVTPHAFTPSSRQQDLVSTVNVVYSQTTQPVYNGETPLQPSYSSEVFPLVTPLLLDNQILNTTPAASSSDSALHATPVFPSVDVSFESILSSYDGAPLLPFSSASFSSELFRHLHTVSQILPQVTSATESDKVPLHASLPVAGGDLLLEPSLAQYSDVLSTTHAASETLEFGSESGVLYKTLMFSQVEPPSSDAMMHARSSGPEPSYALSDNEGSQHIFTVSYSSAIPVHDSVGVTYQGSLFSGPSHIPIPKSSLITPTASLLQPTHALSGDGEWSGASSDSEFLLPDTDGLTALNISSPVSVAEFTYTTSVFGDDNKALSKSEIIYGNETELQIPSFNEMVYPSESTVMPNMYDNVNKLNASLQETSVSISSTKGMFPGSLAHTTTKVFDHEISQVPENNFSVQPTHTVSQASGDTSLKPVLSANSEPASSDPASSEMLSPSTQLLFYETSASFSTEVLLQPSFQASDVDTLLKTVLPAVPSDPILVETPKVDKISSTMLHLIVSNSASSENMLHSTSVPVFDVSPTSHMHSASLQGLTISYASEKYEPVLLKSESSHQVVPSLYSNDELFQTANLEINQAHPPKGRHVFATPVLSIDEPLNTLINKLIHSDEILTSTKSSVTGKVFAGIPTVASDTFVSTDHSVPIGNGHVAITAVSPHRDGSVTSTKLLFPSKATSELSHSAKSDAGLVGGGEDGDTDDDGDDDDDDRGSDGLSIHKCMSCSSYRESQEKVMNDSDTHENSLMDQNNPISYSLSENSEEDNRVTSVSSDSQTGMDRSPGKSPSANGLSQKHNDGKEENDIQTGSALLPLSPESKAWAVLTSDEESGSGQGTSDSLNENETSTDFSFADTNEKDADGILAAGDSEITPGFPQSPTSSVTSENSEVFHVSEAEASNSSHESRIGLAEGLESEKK

Kd (PTPζ (Homo sapiens) [1]): 0.56 nM
Kd (LRP-1 (Homo sapiens)): 3.5 nM
Kd (PTPζ (Homo sapiens) [2]): 8.8 nM
Substance: Midkine (from UniProt P21741)
